To fix the notation:
B1: SNAP91 (parent)
chain: FAQPMMRPPFGAAAVPGTQLSPSP
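Further: lentivirally expressed fusions sorted by FACS into six bins by GFP to DsRed ratio, PSI derived from sequencing read proportions per bin multiplied by bin number.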

Variants of B1 are the subject of this data set. Briefly: protein stability index of a GFP-peptide fusion (GPS, HEK-293T) (PSI 1-6); higher = more stable. The conditions noted are these: c terminus: a fixed tail appended.
As for FAQPMMAPPFGAAAVPGTQLSPSP [R7A], the protein stability index worked out at 3.55.

For the variant FAQPMMKPPFGAAAVPGTQLSPSP [R7K], the protein stability index stood at 3.34. As for FAQPMMQPPFGAAAVPGTQLSPSP [R7Q], the protein stability index came out at 2.62. For the variant FAQPMMYPPFGAAAVPGTQLSPSP [R7Y], the protein stability index stood at 1.89. On to FAQPMMIPPFGAAAVPGTQLSPSP [R7I], for which the protein stability index was 2.4. With FAQPMMCPPFGAAAVPGTQLSPSP [R7C], the protein stability index is 2.3. Turning to FAQPMMVPPFGAAAVPGTQLSPSP [R7V], the protein stability index stood at 2.49. Consider FAQPMMWPPFGAAAVPGTQLSPSP [R7W], for which the protein stability index turned out to be 1.7. As to FAQPMMDPPFGAAAVPGTQLSPSP [R7D], the protein stability index amounted to 3.13. FAQPMMTPPFGAAAVPGTQLSPSP [R7T]: the protein stability index came out at 2.67.

For FAQPMMEPPFGAAAVPGTQLSPSP [R7E], the protein stability index is 3.22.

Turning to FAQPMMFPPFGAAAVPGTQLSPSP [R7F], the protein stability index came out at 1.55. In the case of FAQPMMHPPFGAAAVPGTQLSPSP [R7H] it was 2.81; in that of FAQPMMGPPFGAAAVPGTQLSPSP [R7G], 2.23; in that of FAQPMMLPPFGAAAVPGTQLSPSP [R7L], 2.38. Then FAQPMMSPPFGAAAVPGTQLSPSP [R7S], with 3.32.

For FAQPMMNPPFGAAAVPGTQLSPSP [R7N], the protein stability index was determined as 2.92. In the case of FAQPMMPPPFGAAAVPGTQLSPSP [R7P], the protein stability index turned out to be 2.87. In the case of FAQPMMMPPFGAAAVPGTQLSPSP [R7M] it was 2.42. In the case of FAQPMMRPPHGAAAVPGTQLSPSP [F10H], the protein stability index was determined as 3.58.

Consider FAQPMMRPPAGAAAVPGTQLSPSP [F10A], for which the protein stability index is 3.98. Take FAQPMMRPPIGAAAVPGTQLSPSP [F10I]: the protein stability index amounted to 3.99. For the variant FAQPMMRPPVGAAAVPGTQLSPSP [F10V], the protein stability index was 4.7. For the variant FAQPMMRPPYGAAAVPGTQLSPSP [F10Y], the protein stability index came to 2.83. In the case of FAQPMMRPPQGAAAVPGTQLSPSP [F10Q], the protein stability index was 4.33.

For FAQPMMRPPDGAAAVPGTQLSPSP [F10D], the protein stability index turned out to be 4.52.

On to FAQPMMRPPKGAAAVPGTQLSPSP [F10K], for which the protein stability index stood at 3.83. Regarding FAQPMMRPPSGAAAVPGTQLSPSP [F10S], the protein stability index was found to be 3.81. Turning to FAQPMMRPPNGAAAVPGTQLSPSP [F10N], the protein stability index came to 4.14. Turning to FAQPMMRPPPGAAAVPGTQLSPSP [F10P], the protein stability index is 4.31. On to FAQPMMRPPTGAAAVPGTQLSPSP [F10T], for which the protein stability index was found to be 4.14. For FAQPMMRPPLGAAAVPGTQLSPSP [F10L], the protein stability index is 4.12. On to FAQPMMRPPRGAAAVPGTQLSPSP [F10R], for which the protein stability index worked out at 3.86. Turning to FAQPMMRPPMGAAAVPGTQLSPSP [F10M], the protein stability index was 4.12. Consider FAQPMMRPPGGAAAVPGTQLSPSP [F10G], for which the protein stability index is 4.2. Then FAQPMMRPPCGAAAVPGTQLSPSP [F10C], with 2.95. Then FAQPMMRPPEGAAAVPGTQLSPSP [F10E], with 3.99; and FAQPMMRPPWGAAAVPGTQLSPSP [F10W], with 2.1; and FAQPMMRPDFGAAAVPGTQLSPSP [P9D], with 4.04. As to FAQPMMRPIFGAAAVPGTQLSPSP [P9I], the protein stability index stood at 2.57. In the case of FAQPMMRPKFGAAAVPGTQLSPSP [P9K] it was 2.71. For FAQPMMRPEFGAAAVPGTQLSPSP [P9E], the protein stability index is 3.94. On to FAQPMMRPWFGAAAVPGTQLSPSP [P9W], for which the protein stability index turned out to be 1.91. In the case of FAQPMMRPRFGAAAVPGTQLSPSP [P9R] it was 3.77. For the variant FAQPMMRPNFGAAAVPGTQLSPSP [P9N], the protein stability index came out at 3.14.

Regarding FAQPMMRPHFGAAAVPGTQLSPSP [P9H], the protein stability index amounted to 3.52. As to FAQPMMRPCFGAAAVPGTQLSPSP [P9C], the protein stability index came out at 3.06. Turning to FAQPMMRPGFGAAAVPGTQLSPSP [P9G], the protein stability index is 3.45.

For the variant FAQPMMRPFFGAAAVPGTQLSPSP [P9F], the protein stability index was 1.63. With FAQPMMRPLFGAAAVPGTQLSPSP [P9L], the protein stability index was 1.91. FAQPMMRPMFGAAAVPGTQLSPSP [P9M]: the protein stability index came out at 3.1.

Take FAQPMMRPTFGAAAVPGTQLSPSP [P9T]: the protein stability index came to 3.59. On to FAQPMMRPQFGAAAVPGTQLSPSP [P9Q], for which the protein stability index amounted to 3.91. Then FAQPMMRPVFGAAAVPGTQLSPSP [P9V], with 3.26.

FAQPMMRPAFGAAAVPGTQLSPSP [P9A]: the protein stability index stood at 3.51.

For the variant FAQPMMRPSFGAAAVPGTQLSPSP [P9S], the protein stability index worked out at 3.75. For the variant FAQPMMRPYFGAAAVPGTQLSPSP [P9Y], the protein stability index was found to be 2.34. Then FAQPMMRAPFGAAAVPGTQLSPSP [P8A], with 3.82. As for FAQPMMRMPFGAAAVPGTQLSPSP [P8M], the protein stability index turned out to be 3.01. As for FAQPMMRQPFGAAAVPGTQLSPSP [P8Q], the protein stability index came out at 3.36. Regarding FAQPMMRRPFGAAAVPGTQLSPSP [P8R], the protein stability index worked out at 3.03.

For FAQPMMRSPFGAAAVPGTQLSPSP [P8S], the protein stability index came to 2.96.

On to FAQPMMRYPFGAAAVPGTQLSPSP [P8Y], for which the protein stability index is 2.79. In the case of FAQPMMRWPFGAAAVPGTQLSPSP [P8W] it was 2.64. In the case of FAQPMMRHPFGAAAVPGTQLSPSP [P8H] it was 3.16. As to FAQPMMREPFGAAAVPGTQLSPSP [P8E], the protein stability index was found to be 3.75. In the case of FAQPMMRLPFGAAAVPGTQLSPSP [P8L] it was 2.87. Consider FAQPMMRCPFGAAAVPGTQLSPSP [P8C], for which the protein stability index came to 2.39. Take FAQPMMRTPFGAAAVPGTQLSPSP [P8T]: the protein stability index worked out at 3.02.

Regarding FAQPMMRNPFGAAAVPGTQLSPSP [P8N], the protein stability index came to 2.98. Consider FAQPMMRDPFGAAAVPGTQLSPSP [P8D], for which the protein stability index stood at 3.5. As for FAQPMMRVPFGAAAVPGTQLSPSP [P8V], the protein stability index is 3.11. For FAQPMMRIPFGAAAVPGTQLSPSP [P8I], the protein stability index was 2.49. As to FAQPMMRFPFGAAAVPGTQLSPSP [P8F], the protein stability index is 2.97. Take FAQPMMRKPFGAAAVPGTQLSPSP [P8K]: the protein stability index came out at 2.97. Regarding FAQPMMRGPFGAAAVPGTQLSPSP [P8G], the protein stability index turned out to be 2.97. In the case of FAQPMMRPPFCAAAVPGTQLSPSP [G11C], the protein stability index is 2.96.

Turning to FAQPMMRPPFHAAAVPGTQLSPSP [G11H], the protein stability index was found to be 2.91. In the case of FAQPMMRPPFAAAAVPGTQLSPSP [G11A] it was 3.74; in that of FAQPMMRPPFEAAAVPGTQLSPSP [G11E], 3.43. For FAQPMMRPPFKAAAVPGTQLSPSP [G11K], the protein stability index was 3.55. With FAQPMMRPPFFAAAVPGTQLSPSP [G11F], the protein stability index was 2.86. Then FAQPMMRPPFDAAAVPGTQLSPSP [G11D], with 3.7; and FAQPMMRPPFIAAAVPGTQLSPSP [G11I], with 2.73; and FAQPMPRPPFGAAAVPGTQLSPSP [M6P], with 3.62.

Turning to FAQPMNRPPFGAAAVPGTQLSPSP [M6N], the protein stability index is 3.19. On to FAQPMLRPPFGAAAVPGTQLSPSP [M6L], for which the protein stability index is 3.13. As for FAQPMQRPPFGAAAVPGTQLSPSP [M6Q], the protein stability index amounted to 3.9. On to FAQPMTRPPFGAAAVPGTQLSPSP [M6T], for which the protein stability index came out at 3.68. For the variant FAQPMSRPPFGAAAVPGTQLSPSP [M6S], the protein stability index stood at 3.1. Regarding FAQPMYRPPFGAAAVPGTQLSPSP [M6Y], the protein stability index stood at 2.88.

As to FAQPMVRPPFGAAAVPGTQLSPSP [M6V], the protein stability index came to 3.87. For FAQPMWRPPFGAAAVPGTQLSPSP [M6W], the protein stability index is 2.61. For the variant FAQPMRRPPFGAAAVPGTQLSPSP [M6R], the protein stability index was 3.1.

The record behind these values is the supplement of paper PMC10567573.
